Test results published in the supplement of paper PMC10065799, “High-throughput profiling of sequence recognition by tyrosine kinases and SH2 domains using bacterial peptide display” (eLife, 2023).

Tests used:
EPHB2 = EPHB2 (UniProt P29323); test: phosphorylation enrichment, bacterial display (enrichment ratio); higher = better substrate or ligand; peptides without Tyr show the background
Fes = Fes (UniProt P07332); test: as above
Fer (mouse) = test: as above
MERTK = MERTK (UniProt Q12866); test: as above
FGFR1 = FGFR1 (UniProt P11362); test: as above
c-Src = test: as above
FGFR3 = FGFR3 (UniProt P22607); test: as above
AncSZ = test: as above
Hck = Hck (UniProt P08631); test: as above
Fyn = Fyn (UniProt P06241); test: as above
Jak2 = Jak2 (UniProt O60674); test: as above
c-Abl (mouse) = test: as above
EPHB1 = EPHB1 (UniProt P54762); test: as above
Grb2 SH2 = Grb2 SH2 (UniProt P62993); test: SH2 binding enrichment of the phosphorylated peptide, bacterial display (enrichment ratio); higher = better substrate or ligand; peptides without Tyr show the background
SHP2-C SH2 = test: as above
c-Src SH2 = test: as above
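Throughout, for SH2 binding enrichment of the phosphorylated peptide, bacterial display: peptide library displayed on the E. coli surface as eCPX fusions, selected cells deep-sequenced, score is each peptide's frequency after selection divided by its frequency in the input.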
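Throughout, for phosphorylation enrichment, bacterial display: 11-residue human phosphosite peptides and single-mutation variants displayed on the E. coli surface, counted by deep sequencing, each peptide's frequency after selection divided by its frequency in the unselected input library; frequency after pTyr selection over input frequency; kinase dosed for 20-30% of maximal phosphorylation in three min.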

Chain of Fyn (P06241 whole entry, looked up): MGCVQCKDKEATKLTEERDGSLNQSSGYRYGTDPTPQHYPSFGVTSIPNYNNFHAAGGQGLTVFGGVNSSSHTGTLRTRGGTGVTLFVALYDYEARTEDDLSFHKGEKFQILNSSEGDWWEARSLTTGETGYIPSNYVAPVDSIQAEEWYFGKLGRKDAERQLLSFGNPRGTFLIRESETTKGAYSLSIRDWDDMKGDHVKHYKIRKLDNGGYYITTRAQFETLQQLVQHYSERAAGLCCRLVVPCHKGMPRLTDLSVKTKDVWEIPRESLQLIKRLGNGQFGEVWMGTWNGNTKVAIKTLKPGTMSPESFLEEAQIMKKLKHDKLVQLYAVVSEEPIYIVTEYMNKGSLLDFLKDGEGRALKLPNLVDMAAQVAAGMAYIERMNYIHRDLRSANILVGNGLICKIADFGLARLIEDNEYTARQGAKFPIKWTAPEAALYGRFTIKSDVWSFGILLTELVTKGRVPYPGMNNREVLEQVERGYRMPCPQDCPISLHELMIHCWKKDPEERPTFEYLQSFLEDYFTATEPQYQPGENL
Chain of EPHB2 (P29323 whole entry, looked up): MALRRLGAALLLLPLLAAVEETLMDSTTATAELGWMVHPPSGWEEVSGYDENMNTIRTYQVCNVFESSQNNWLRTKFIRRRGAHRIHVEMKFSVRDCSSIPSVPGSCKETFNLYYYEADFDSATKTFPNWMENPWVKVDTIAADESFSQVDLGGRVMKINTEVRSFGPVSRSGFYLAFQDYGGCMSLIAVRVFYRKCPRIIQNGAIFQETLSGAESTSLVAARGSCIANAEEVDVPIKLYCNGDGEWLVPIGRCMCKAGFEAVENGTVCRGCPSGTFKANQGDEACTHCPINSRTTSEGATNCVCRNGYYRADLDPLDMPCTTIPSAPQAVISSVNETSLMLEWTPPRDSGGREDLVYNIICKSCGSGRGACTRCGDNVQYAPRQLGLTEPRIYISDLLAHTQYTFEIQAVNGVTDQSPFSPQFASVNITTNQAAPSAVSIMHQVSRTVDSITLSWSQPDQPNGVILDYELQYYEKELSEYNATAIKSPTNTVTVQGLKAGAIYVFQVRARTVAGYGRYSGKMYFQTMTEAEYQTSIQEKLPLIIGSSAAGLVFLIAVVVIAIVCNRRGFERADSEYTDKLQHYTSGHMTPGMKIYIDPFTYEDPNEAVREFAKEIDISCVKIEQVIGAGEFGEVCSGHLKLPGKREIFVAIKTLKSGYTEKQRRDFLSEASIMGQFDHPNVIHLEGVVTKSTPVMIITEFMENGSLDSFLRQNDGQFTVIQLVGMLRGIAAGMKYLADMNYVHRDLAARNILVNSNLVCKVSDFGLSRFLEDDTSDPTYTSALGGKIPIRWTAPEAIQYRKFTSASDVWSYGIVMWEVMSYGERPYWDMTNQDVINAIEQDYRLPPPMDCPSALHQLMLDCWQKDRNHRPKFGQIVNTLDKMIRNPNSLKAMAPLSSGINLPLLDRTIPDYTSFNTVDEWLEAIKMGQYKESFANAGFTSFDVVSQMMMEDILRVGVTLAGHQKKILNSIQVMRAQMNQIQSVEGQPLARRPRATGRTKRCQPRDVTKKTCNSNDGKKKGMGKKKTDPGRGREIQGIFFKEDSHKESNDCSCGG
Chain of Hck (P08631 whole entry, looked up): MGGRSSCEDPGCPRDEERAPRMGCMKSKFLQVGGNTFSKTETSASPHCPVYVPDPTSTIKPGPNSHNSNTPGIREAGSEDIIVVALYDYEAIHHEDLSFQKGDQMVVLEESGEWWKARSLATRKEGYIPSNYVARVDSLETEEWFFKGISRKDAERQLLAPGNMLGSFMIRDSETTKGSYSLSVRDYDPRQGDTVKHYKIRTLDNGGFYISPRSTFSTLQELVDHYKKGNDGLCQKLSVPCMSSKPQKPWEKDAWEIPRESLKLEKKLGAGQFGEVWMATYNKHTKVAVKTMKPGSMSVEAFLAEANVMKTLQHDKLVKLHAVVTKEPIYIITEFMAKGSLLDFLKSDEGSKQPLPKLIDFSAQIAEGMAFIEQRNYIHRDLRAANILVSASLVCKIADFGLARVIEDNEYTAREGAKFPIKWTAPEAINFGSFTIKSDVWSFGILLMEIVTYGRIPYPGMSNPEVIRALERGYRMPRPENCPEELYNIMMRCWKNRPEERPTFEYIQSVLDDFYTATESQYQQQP
Chain of Fes (P07332 whole entry, looked up): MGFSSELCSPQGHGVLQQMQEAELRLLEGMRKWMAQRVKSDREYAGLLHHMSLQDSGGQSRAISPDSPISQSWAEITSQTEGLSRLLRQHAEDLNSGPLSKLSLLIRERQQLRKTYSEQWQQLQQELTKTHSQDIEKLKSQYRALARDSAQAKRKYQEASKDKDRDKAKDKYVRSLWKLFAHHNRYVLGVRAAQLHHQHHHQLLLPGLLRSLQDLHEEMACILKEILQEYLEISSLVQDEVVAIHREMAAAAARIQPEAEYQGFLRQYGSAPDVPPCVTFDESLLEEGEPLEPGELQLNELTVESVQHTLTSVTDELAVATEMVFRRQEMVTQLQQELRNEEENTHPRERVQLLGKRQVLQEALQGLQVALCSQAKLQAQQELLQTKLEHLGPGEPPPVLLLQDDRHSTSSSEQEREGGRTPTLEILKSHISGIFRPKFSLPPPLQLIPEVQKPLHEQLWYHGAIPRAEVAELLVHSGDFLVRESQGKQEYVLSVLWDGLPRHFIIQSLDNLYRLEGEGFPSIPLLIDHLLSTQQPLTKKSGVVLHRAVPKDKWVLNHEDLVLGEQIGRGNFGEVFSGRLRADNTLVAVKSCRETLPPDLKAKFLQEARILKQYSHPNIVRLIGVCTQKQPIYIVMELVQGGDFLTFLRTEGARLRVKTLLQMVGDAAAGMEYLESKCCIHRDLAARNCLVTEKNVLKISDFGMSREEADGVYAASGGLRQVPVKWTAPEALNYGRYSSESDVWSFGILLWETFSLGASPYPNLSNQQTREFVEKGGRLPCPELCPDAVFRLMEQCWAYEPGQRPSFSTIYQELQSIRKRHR
Chain of FGFR3 (P22607 whole entry, looked up): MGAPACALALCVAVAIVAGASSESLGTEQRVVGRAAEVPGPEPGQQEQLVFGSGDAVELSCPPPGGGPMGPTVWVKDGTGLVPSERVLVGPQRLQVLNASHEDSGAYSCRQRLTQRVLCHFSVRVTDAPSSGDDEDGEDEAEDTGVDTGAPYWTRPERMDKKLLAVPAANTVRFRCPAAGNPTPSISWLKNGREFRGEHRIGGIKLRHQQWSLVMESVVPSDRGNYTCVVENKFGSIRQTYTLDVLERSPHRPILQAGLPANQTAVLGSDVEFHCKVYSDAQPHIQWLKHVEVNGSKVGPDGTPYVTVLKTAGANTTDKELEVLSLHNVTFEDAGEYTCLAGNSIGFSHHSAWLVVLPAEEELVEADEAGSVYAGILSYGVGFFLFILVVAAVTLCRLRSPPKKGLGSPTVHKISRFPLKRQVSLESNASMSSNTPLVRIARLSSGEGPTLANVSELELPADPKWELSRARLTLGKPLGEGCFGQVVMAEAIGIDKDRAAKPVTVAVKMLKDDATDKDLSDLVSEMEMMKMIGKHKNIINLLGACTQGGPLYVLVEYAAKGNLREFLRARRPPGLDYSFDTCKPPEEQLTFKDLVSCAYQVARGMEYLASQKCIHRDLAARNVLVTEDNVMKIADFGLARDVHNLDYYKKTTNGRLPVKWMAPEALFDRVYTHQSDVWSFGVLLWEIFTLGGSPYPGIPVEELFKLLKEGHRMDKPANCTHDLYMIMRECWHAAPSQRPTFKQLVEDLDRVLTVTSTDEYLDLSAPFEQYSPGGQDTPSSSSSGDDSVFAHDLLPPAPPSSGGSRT
Chain of Grb2 SH2 (P62993 whole entry, looked up): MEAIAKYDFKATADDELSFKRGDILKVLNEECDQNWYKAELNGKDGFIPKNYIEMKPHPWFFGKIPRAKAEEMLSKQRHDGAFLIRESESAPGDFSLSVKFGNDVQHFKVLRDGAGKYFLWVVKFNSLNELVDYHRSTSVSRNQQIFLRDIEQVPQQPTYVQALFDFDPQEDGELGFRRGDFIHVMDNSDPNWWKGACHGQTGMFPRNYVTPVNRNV
Chain of EPHB1 (P54762 whole entry, looked up): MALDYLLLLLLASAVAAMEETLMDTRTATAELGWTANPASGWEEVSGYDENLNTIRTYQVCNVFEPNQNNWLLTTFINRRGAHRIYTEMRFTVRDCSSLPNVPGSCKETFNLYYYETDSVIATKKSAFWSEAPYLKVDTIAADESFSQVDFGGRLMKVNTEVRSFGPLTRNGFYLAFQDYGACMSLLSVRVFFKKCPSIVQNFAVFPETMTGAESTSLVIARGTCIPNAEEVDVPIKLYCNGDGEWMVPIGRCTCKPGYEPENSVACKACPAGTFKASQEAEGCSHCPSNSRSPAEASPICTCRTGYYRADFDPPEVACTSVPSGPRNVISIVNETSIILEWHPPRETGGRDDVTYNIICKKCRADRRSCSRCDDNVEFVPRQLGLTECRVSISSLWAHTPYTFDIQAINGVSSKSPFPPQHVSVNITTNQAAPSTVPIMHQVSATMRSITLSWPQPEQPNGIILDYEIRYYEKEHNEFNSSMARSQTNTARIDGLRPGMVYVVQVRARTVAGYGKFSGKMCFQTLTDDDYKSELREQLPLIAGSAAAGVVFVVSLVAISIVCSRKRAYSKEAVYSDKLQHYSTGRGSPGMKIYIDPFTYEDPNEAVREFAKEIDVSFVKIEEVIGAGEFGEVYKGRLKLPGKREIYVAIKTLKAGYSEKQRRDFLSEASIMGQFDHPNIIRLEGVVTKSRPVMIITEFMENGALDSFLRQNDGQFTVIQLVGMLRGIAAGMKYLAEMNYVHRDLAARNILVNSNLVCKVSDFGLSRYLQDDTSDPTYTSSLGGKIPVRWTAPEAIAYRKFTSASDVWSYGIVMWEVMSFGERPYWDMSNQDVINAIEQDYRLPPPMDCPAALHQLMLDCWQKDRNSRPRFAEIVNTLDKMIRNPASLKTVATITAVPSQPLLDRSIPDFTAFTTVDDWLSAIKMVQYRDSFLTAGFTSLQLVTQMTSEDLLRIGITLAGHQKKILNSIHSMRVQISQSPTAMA

Sequence	phosphorylation enrichment (EPHB2)	phosphorylation enrichment (Fes)	phosphorylation enrichment (Fer (mouse))	phosphorylation enrichment (MERTK)	phosphorylation enrichment (FGFR1)	phosphorylation enrichment (c-Src)	phosphorylation enrichment (FGFR3)	phosphorylation enrichment (AncSZ)	phosphorylation enrichment (Hck)	phosphorylation enrichment (Fyn)	phosphorylation enrichment (Jak2)	phosphorylation enrichment (c-Abl (mouse))	phosphorylation enrichment (EPHB1)	SH2 binding enrichment (Grb2 SH2)	SH2 binding enrichment (SHP2-C SH2)	SH2 binding enrichment (c-Src SH2)
MSYDRYMAICH [OR2A5_Y123]	0.704	1.03	0.498	0.484	0.509	0.485	0.672	0.909	0.646	0.511	0.895	0.695	0.846	0.753	0.605	0.79
MTFQNYRQALF [FAM20C_Y279_G280R]	0.572	1.02	0.451	0.494	0.444	0.462	0.57	0.909	0.469	0.576	0.867	0.657	0.477	1.13	0.792	0.51
MTRDIYRASFF [ALK_Y1278_A1274T_YF]	0.462	0.73	0.386	0.464	0.572	0.592	0.677	0.657	0.89	0.587	0.621	4.15	0.519	0.811	0.563	0.529
MYDKEYYSVHN [MET_Y1234]	1.13	1.1	0.727	0.813	7.14	1.65	4.25	2.1	0.903	0.64	2.53	1.05	0.965	0.873	0.566	0.622
NALVQYQEMEK [BBS4_Y395_A393V]	0.503	1.02	0.509	0.459	0.562	0.507	0.721	0.978	0.569	0.53	1.02	0.62	0.507	1.04	0.745	4.65
NDLMEYPKQHG [ASS1_Y163_A164P]	0.48	0.855	0.377	0.45	0.506	0.447	0.48	0.738	0.502	0.503	0.765	0.697	0.46	0.887	0.571	0.538
NDQANYLLNTD [ADA_Y290_S291L]	0.56	0.968	0.379	0.395	0.432	0.468	0.601	0.987	0.469	0.491	0.934	0.681	0.558	0.765	0.893	0.527
NELTYYCCKKD [CD59_Y87]	1.17	1.3	3.67	4.45	7.15	3.91	3.92	1.9	3.04	2.92	2.83	1.48	0.923	0.78	0.766	0.438
NESVDYRATFP [MET_Y1003]	0.463	0.802	0.454	0.422	0.427	0.418	0.489	0.681	0.484	0.472	0.749	0.591	0.421	0.748	0.693	0.433
NFATLHLKIYH [PDE6B_Y219_Y219H]	0.536	1.41	0.498	0.46	0.423	0.568	0.755	1.16	0.47	0.476	1.12	1.01	0.675	0.954	0.953	0.885
NFDRVYIFHLR [MYOF_Y1137_YF]	0.559	1.19	0.523	0.46	0.535	0.615	0.897	1.19	0.473	0.414	1.18	0.91	0.545	1.59	1.66	1.21
NFYEYYVDDPL [GCHFR_Y48_P53L]	7.76	1.74	6.36	7.76	7.28	4.67	5.52	2.81	2.29	4.96	1.64	1.04	6.99	0.984	0.726	0.856
NGSKAYAFVHF [PABPC5_Y147_G146A_YF]	0.606	1.02	0.769	0.71	0.649	0.372	0.763	0.97	0.531	0.442	0.796	0.618	0.586	1.05	20.4	1.65
NHQFDYTFDWT [CSNK1A1_Y294_YF]	0.721	1.12	0.459	0.565	3.58	1.22	2.22	1.23	0.543	0.584	1.08	0.995	0.696	1.02	0.829	0.606
